From paper PMC9468158, “Transmembrane helices mediate the formation of a stable ternary complex of b5R, cyt b5, and SCD1” (Communications Biology, 2022)

T1: SCD1, released from the linker-cleaved SCD1-cyt b5 fusions (mouse, UniProt P13516 1-355)
T1 construct: stearoyl-CoA desaturase-1 (SCD1), mouse, UniProt P13516; stands for the SCD1 chain of the fusion with full-length cyt b5 (wild type and TM mutants) and of the fusion with the soluble domain of cyt b5; the GFP tag stood at the C-terminus of the fusion; surmised: ENLYFQ is left at the C-terminus after cleavage
T1 sequence (looked up): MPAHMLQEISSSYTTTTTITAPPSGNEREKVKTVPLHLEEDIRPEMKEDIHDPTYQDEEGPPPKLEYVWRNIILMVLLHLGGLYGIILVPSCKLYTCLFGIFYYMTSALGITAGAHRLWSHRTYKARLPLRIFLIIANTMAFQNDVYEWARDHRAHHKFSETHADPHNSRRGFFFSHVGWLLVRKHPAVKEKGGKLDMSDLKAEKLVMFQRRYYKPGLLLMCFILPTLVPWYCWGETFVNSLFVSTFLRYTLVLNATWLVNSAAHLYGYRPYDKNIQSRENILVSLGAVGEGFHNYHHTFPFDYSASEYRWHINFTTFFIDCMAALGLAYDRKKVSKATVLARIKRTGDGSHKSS

T2: SCD1, released from the linker-cleaved SCD1-cyt b5-b5R fusions (mouse, UniProt P13516 1-355)
T2 construct: stearoyl-CoA desaturase-1 (SCD1), mouse, UniProt P13516; stands for the SCD1 chain of the ternary fusion of the full-length proteins and of the sample with soluble cyt b5 and b5R; surmised: linker residues are left after TEV cleavage; not shown: GFP, N-terminal, cleaved
T2 sequence (looked up): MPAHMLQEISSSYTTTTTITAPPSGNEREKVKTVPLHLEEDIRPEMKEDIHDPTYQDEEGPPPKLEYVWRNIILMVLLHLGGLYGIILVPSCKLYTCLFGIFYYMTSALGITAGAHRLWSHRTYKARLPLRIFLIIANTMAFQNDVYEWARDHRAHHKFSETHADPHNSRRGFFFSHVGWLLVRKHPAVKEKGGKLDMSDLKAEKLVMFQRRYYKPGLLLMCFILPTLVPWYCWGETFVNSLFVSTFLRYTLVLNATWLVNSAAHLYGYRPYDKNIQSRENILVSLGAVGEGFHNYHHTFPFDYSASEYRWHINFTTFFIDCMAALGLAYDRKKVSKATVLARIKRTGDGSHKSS


Legend:
[1] = molecular target: T1, SCD1, released from the linker-cleaved …; experiment: SEC; binary fusion protein purified, linker cleaved by TEV protease, Superdex 200 10/300 GL in 20 mM HEPES pH 7.5, 150 mM NaCl, 1 mM DDM; elution compared with the tethered fusion; conditions: both partners purified
[2] = molecular target: T2, SCD1, released from the linker-cleaved …; experiment: SEC; ternary fusion SCD1-cyt b5-b5R purified, linkers cleaved by TEV protease, Superdex 200 10/300 GL in 20 mM HEPES pH 7.5, 150 mM NaCl, 1 mM DDM; three proteins in the sample; conditions: both partners purified

binding result [1]	binding result [2]	Binder
binds	–	full-length cyt b5, released from the linker-cleaved SCD1-cyt b5 fusion (natural protein, mouse, UniProt P56395 1-134, looked up, cytochrome b5, mouse, UniProt P56395; surmised: G at the N-terminus and ENLYFQ at the C-terminus are left after TEV cleavage; not shown: GFP, C-terminal, cleaved) MAGQSDKDVKYYTLEEIQKHKDSKSTWVILHHKVYDLTKFLEEHPGGEEVLREQAGGDATENFEDVGHSTDARELSKTYIIGELHPDDRSKIAKPSDTLITTVESNSSWWTNWVIPAISALAVALMYRLYMAED
–	binds	full-length cyt b5, released from the linker-cleaved SCD1-cyt b5-b5R fusion (natural protein, mouse, UniProt P56395 1-134, looked up, cytochrome b5, mouse, UniProt P56395; surmised: linker residues are left after TEV cleavage) MAGQSDKDVKYYTLEEIQKHKDSKSTWVILHHKVYDLTKFLEEHPGGEEVLREQAGGDATENFEDVGHSTDARELSKTYIIGELHPDDRSKIAKPSDTLITTVESNSSWWTNWVIPAISALAVALMYRLYMAED
